According to patent US20240262905A1 (PANDION OPERATIONS, published 2024):
One block for each binder: values may come before it.

What was measured:
human DSG-3 [1] = biological target: T1, human DSG-3 (human, UniProt P32926 50-615, limits assumed); experiment: bridging ELISA, plate coated with hDSG-3, test article at 1 nM, then his-tagged hCD25 1 ug/mL, anti-His-HRP detection
T1 construct: Soluble analyte (Octet) and plate coat (ELISA); also called hDSG-3
T1 sequence (looked up): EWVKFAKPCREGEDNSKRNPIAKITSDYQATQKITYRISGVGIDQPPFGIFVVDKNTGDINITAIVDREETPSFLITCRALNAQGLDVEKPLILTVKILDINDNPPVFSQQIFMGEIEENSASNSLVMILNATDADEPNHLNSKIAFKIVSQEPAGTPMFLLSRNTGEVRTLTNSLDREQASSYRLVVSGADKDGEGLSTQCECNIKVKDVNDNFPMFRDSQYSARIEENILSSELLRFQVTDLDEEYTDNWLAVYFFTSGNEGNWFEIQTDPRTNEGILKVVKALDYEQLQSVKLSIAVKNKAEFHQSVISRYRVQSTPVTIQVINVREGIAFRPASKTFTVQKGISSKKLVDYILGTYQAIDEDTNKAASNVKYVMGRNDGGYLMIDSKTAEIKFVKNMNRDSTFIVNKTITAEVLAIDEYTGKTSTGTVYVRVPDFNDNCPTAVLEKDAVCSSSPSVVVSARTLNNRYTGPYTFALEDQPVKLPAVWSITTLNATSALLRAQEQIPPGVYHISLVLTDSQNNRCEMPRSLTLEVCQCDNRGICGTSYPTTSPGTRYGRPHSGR

human DSG-3 [2] = biological target: T1, human DSG-3; experiment: bridging ELISA, plate coated with hDSG-3, test article at 10 nM, then his-tagged hCD25 1 ug/mL, anti-His-HRP detection
human DSG-3 [3] = biological target: T1, human DSG-3; experiment: bridging ELISA, plate coated with hDSG-3, test article at 100 nM, then his-tagged hCD25 1 ug/mL, anti-His-HRP detection
human CD25 = biological target: T2, human CD25 (human, UniProt P01589 22-213, limits assumed); experiment: BLI (Octet), test article captured on anti-human Fc biosensors, 1:1 global fit (method text names desmogleins as analyte; result told for human CD25)
T2 construct: construct not described
T2 sequence (looked up): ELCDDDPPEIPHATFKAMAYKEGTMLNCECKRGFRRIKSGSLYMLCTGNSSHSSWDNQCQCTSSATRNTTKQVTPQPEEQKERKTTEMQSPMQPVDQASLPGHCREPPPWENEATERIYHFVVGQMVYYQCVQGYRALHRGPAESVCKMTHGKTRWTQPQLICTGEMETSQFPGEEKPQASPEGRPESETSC

Insulin = biological target: T3, Insulin; experiment: ELISA, plate coated with insulin 5 ug/mL, test article at 100 nM, anti-human Fc-HRP detection
T3 construct: Plate coat in the polyreactivity ELISA

desmoglein-1 = biological target: T4, desmoglein-1 (Homo sapiens (Human), UniProt Q02413 50-548); experiment: BLI (Octet), test article captured on anti-human Fc biosensors, desmoglein as analyte, 1:1 global fit
T4 construct: also called DSG-1
T4 sequence: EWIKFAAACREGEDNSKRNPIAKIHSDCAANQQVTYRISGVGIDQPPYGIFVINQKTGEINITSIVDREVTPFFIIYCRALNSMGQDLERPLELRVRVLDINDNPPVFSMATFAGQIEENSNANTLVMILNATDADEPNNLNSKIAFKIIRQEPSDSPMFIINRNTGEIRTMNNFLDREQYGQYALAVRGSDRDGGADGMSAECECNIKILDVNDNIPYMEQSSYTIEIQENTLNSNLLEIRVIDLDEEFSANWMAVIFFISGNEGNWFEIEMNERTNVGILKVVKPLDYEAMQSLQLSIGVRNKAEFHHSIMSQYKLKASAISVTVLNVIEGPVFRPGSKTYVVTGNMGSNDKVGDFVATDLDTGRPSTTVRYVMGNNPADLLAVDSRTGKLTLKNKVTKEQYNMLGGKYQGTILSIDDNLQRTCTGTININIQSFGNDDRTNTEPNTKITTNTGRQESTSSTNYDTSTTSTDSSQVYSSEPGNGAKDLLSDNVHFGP

desmoglein-2 = biological target: T5, desmoglein-2 (Homo sapiens (Human), UniProt Q14126 50-609); experiment: as above
T5 construct: also called DSG-2
T5 sequence: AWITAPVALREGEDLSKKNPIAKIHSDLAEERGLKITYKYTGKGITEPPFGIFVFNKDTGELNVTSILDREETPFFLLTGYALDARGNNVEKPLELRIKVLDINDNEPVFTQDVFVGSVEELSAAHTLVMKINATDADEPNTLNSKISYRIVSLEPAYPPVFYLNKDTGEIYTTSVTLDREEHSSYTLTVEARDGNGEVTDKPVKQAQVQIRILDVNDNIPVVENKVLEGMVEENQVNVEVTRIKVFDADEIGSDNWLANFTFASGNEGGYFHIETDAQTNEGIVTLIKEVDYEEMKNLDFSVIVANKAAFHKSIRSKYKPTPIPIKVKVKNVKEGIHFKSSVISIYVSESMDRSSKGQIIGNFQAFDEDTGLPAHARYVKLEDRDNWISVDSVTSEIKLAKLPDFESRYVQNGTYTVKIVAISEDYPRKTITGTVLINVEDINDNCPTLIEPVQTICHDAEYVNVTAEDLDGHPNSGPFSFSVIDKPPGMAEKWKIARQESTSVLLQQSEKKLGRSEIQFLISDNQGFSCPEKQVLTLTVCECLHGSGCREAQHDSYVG

desmoglein-4 = biological target: T6, desmoglein-4 (Homo sapiens (Human), UniProt Q86SJ6 50-631); experiment: as above
T6 construct: also called DSG-4
T6 sequence: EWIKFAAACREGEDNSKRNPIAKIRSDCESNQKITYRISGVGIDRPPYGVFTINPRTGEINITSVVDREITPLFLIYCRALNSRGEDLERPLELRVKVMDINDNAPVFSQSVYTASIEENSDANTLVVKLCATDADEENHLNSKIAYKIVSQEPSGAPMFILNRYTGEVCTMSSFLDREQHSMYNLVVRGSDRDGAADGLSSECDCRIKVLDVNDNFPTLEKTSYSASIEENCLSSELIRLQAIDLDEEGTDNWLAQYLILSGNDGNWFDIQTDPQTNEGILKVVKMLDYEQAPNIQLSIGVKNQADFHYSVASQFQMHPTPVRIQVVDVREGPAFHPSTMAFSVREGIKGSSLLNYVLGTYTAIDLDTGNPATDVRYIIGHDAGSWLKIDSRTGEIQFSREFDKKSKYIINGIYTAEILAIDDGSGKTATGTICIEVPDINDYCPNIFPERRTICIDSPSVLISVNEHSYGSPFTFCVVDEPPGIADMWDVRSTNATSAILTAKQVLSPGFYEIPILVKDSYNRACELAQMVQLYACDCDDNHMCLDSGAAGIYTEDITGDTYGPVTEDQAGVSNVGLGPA

human DSG-3 [4] = biological target: T1, human DSG-3; experiment: as above

absorbance (OD450 nm) (human DSG-3 [1]): 0.27
absorbance (OD450 nm) (human DSG-3 [2]): 0.483
absorbance (OD450 nm) (human DSG-3 [3]): 0.965
Kd (human CD25): 3.4 nM
B1: IL2DSGAB5 (other)
heavy: QVQLQESGPGPVKPSGTLSLTCGVSGGSISSNHWWTWVRQPPGKGLEWIGEIYHNGSTFLNPSLKSRVTISVDKSNNQFSLKLTSVTAADTAVYYCARGWHRTGFRGYPSHWYFDLWGRGTLVSVSSASTKGPSVFPLAPSSKSTSGGTAALGCLVKDYFPEPVTVSWNSGALTSGVHTFPAVLQSSGLYSLSSVVTVPSSSLGTQTYICNVNHKPSNTKVDKKVEPKSCDKTHTCPPCPAPEAAGAPSVFLFPPKPKDTLMISRTPEVTCVVVDVSHEDPEVKFNWYVDGVEVHNAKTKPREEQYNSTYRVVSVLTVLHQDWLNGKEYKCKVSNKALPAPIEKTISKAKGQPREPQVYTLPPSREEMTKNQVSLTCLVKGFYPSDIAVEWESNGQPENNYKTTPPVLDSDGSFFLYSKLTVDKSRWQQGNVFSCSVMHEALHNHYTQKSLSLSPG
light: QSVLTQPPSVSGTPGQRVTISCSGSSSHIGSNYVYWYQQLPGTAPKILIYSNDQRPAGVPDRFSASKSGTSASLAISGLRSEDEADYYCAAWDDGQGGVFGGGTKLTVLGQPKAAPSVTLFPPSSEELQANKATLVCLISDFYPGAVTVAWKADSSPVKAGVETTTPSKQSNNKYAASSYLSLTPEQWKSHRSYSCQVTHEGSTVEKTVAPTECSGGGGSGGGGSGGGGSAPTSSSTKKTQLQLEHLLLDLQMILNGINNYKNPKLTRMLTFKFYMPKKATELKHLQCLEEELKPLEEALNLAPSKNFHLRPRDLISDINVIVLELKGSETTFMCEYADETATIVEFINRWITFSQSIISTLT
notes: SD1 anti-desmoglein human IgG1 with the IL-2 mutein fused to the C-terminus of the light chain; also called TL2DSGAB5

absorbance (OD450 nm) (human DSG-3 [1]): 0.29
absorbance (OD450 nm) (human DSG-3 [2]): 0.41
absorbance (OD450 nm) (human DSG-3 [3]): 1
Kd (human CD25): 3.5 nM
B2: IL2DSGAB8 (other)
heavy: QVQLVQSGGGVVQSGRSLRLSCAASGFTFSDYAMHWVRQAPGKGLEWVAVISHGGTKKYTGDSVKGRFIISRDNSKNTVFLQMNSLRVEDTAVYYCARDRVEGYVWGGTFDHWGQGTPVTVSSASTKGPSVFPLAPSSKSTSGGTAALGCLVKDYFPEPVTVSWNSGALTSGVHTFPAVLQSSGLYSLSSVVTVPSSSLGTQTYICNVNHKPSNTKVDKKVEPKSCDKTHTCPPCPAPEAAGAPSVFLFPPKPKDTLMISRTPEVTCVVVDVSHEDPEVKFNWYVDGVEVHNAKTKPREEQYNSTYRVVSVLTVLHQDWLNGKEYKCKVSNKALPAPIEKTISKAKGQPREPQVYTLPPSREEMTKNQVSLTCLVKGFYPSDIAVEWESNGQPENNYKTTPPVLDSDGSFFLYSKLTVDKSRWQQGNVFSCSVMHEALHNHYTQKSLSLSPG
light: ELVLTQPPSVPVAPGQTANISCGGNNIGRQTVHWYQQKPGQAPVLVVFDDSDRPAGIPERFSGSNSGNTATLTISRVEAGDEADYYCQVWDSSSDHVVFGGGTQLTVLGQPKAAPSVTLFPPSSEELQANKATLVCLISDFYPGAVTVAWKADSSPVKAGVETTTPSKQSNNKYAASSYLSLTPEQWKSHRSYSCQVTHEGSTVEKTVAPTECSAEEEKAEEEKAEEEKAEEEKAPTSSSTKKTQLQLEHLLLDLQMILNGINNYKNPKLTRMLTFKFYMPKKATELKHLQCLEEELKPLEEALNLAPSKNFHLRPRDLISDINVIVLELKGSETTFMCEYADETATIVEFINRWITFSQSIISTLT

Insulin polyreactivity score (Insulin): 2.2
Kd (desmoglein-1): 13 nM
Kd (desmoglein-2): 4.2 nM
Kd (desmoglein-4): 10 nM
Kd (human DSG-3 [4]): 19 nM
absorbance (OD450 nm) (human DSG-3 [1]): 0.31
absorbance (OD450 nm) (human DSG-3 [2]): 0.78
absorbance (OD450 nm) (human DSG-3 [3]): 1.3
B3: IL2DSGAB1 (other)
heavy: QVQLQESGPGPVKPSGTLSLTCGVSGGSISSNHWWTWVRQPPGKGLEWIGEIYHNGSTFLNPSLKSRVTISVDKSNNQFSLKLTSVTAADTAVYYCARGWHRTGFRGYPSHWYFDLWGRGTLVSVSSASTKGPSVFPLAPSSKSTSGGTAALGCLVKDYFPEPVTVSWNSGALTSGVHTFPAVLQSSGLYSLSSVVTVPSSSLGTQTYICNVNHKPSNTKVDKKVEPKSCDKTHTCPPCPAPEAAGAPSVFLFPPKPKDTLMISRTPEVTCVVVDVSHEDPEVKFNWYVDGVEVHNAKTKPREEQYNSTYRVVSVLTVLHQDWLNGKEYKCKVSNKALPAPIEKTISKAKGQPREPQVYTLPPSREEMTKNQVSLTCLVKGFYPSDIAVEWESNGQPENNYKTTPPVLDSDGSFFLYSKLTVDKSRWQQGNVFSCSVMHEALHNHYTQKSLSLSPGGGGGSAPTSSSTKKTQLQLEHLLLDLQMILNGINNYKNPKLTRMLTFKFYMPKKATELKHLQCLEEELKPLEEALNLAPSKNFHLRPRDLISDINVIVLELKGSETTFMCEYADETATIVEFINRWITFSQSIISTLT
light: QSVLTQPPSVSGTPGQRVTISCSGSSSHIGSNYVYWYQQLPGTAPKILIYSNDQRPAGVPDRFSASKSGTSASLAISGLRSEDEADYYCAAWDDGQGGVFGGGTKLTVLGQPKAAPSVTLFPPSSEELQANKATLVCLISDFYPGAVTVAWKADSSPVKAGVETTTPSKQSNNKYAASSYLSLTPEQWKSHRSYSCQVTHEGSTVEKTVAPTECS
notes: SD1 anti-desmoglein human IgG1 with the IL-2 mutein fused to the C-terminus of the heavy chain; copies: 2 + 2
